Experimental findings from patent US20240391984A1 are described below.

The target in test [1] is polyclonal IgG (Gammanorm, Octapharma, Sweden). The test can be described thus: SPR (Biacore 8K+), variant amine-coupled to CM5, Gammanorm as analyte, 1:1 kinetic fit.
For test [2] the target is unchanged. Nature of the test: SPR (Biacore 8K+), variant amine-coupled to CM5, Gammanorm as analyte, steady state fit. (In general: Surface plasmon resonance follows binding to a sensor surface in real time, without labels.)
The target is the same in test [3]. Nature of the test: SPR (Biacore 8K+), steady state fit; summary table, differs from Table 10.
Test [4] has the same target. Nature of the test: SPR (Biacore 8K+), 1:1 kinetic fit; summary table, differs from Table 10.
Test [5] shares this target. Nature of the test: SPR (Biacore 8K+), variant amine-coupled to CM5, Gammanorm as analyte, steady state fit. This is another data set of the same source.
Test [6] shares this target. The test can be described thus: SPR (Biacore 8K+), variant amine-coupled to CM5, Gammanorm as analyte, 1:1 kinetic fit. This is another data set of the same source.

B1: pAM262 (D1 domain; N10H, N45H, N60Y) (designed binder)
chain: PKEEVTIKAHLIFADGKTQTAEFKGTFEEATAEAYRYADLLAKVHGEYTADLEDGGYTIYIKFAGKEQPGEN
As to B1, the Kd worked out at 11 nM in test [1] and 48 nM in test [2].

B2: pAM248 (D1 domain; N10H, N45H, N60Q) (designed binder)
chain: PKEEVTIKAHLIFADGKTQTAEFKGTFEEATAEAYRYADLLAKVHGEYTADLEDGGYTIQIKFAGKEQPGEN
Turning to B2, the Kd in test [1] came out at 16 nM; in test [2] it was 56 nM.

B3: pAM246 (Protein L C3b domain; N10H, N45H, N60Q) (designed binder)
chain: PKEEVTIKVHLIFADGKIQTAEFKGTFEEATAKAYAYADLLAKEHGEYTADLEDGGYTIQIKFAGKETPETPEE
Consider B3, for which the Kd in test [1] amounted to 17 nM; in test [3], 47 nM; in test [4], 15 nM; in test [2], 49 nM.

B4: pAM257 (Protein L C2 domain; H, H, Y at positions 10, 45, 60) (designed binder)
chain: PKEEVTIKVHLIFADGKTQTAEFKGTFEEATAKAYAYADLLAKEHGEYTADLEDGGNTIYIKFAGKETPETPEE
Take B4: the Kd came out at 47 nM in test [1] and 98 nM in test [2].

B5: pAM244 (Protein L C2b domain; N10H, N45H, N60Q) (designed binder)
chain: PKEEVTIKVHLIFADGKTQTAEFKGTFEEATAKAYAYADLLAKEHGEYTADLEDGGYTIQIKFAGKETPETPEE
As to B5, the Kd stood at 18 nM in test [1] and 50 nM in test [2].

B6: pAM243 (Protein L C2 domain; H, H, Q at positions 10, 45, 60) (designed binder)
chain: PKEEVTIKVHLIFADGKTQTAEFKGTFEEATAKAYAYADLLAKEHGEYTADLEDGGNTIQIKFAGKETPETPEE
In the case of B6, the Kd amounted to 39 nM in test [1] and 83 nM in test [2].

B7: pAM245 (Protein L C3 domain; H, H, Q at positions 10, 45, 60) (designed binder)
chain: PKEEVTIKVHLIFADGKIQTAEFKGTFEEATAKAYAYANLLAKEHGEYTADLEDGGNTIQIKFAGKETPETPEE
As for B7, the dissociation constant Kd in test [1] worked out at 65 nM; in test [3], 118 nM; in test [4], 54 nM; in test [2] it was 134 nM.

B8: pAM259 (Protein L C3 domain; H, H, Y at positions 10, 45, 60) (designed binder)
chain: PKEEVTIKVHLIFADGKIQTAEFKGTFEEATAKAYAYANLLAKEHGEYTADLEDGGNTIYIKFAGKETPETPEE
With B8, the Kd in test [1] was determined as 55 nM; in test [2], 120 nM.

B9: pAM260 (Protein L C3b domain; N10H, N45H, N60Y) (designed binder)
chain: PKEEVTIKVHLIFADGKIQTAEFKGTFEEATAKAYAYADLLAKEHGEYTADLEDGGYTIYIKFAGKETPETPEE
Turning to B9, the Kd in test [1] amounted to 18 nM; in test [2] it was 51 nM.

B10: pAM261 (Protein L C4 domain; N10H, N45H, N60Y) (designed binder)
chain: PKEEVTIKVHLIFADGKTQTAEFKGTFEEATAEAYRYADLLAKVHGEYTADLEDGGYTIYIKFAGKEQPGENPG
Consider B10, for which the Kd in test [1] came out at 12 nM; in test [2], 43 nM.

B11: pAM247 (Protein L C4 domain; N10H, N45H, N60Q) (designed binder)
chain: PKEEVTIKVHLIFADGKTQTAEFKGTFEEATAEAYRYADLLAKVHGEYTADLEDGGYTIQIKFAGKEQPGENPG
As for B11, the Kd in test [1] was 9 nM; in test [2] it was 38 nM.

B12: pAM258 (Protein L C2b domain; N10H, N45H, N60Y) (designed binder)
chain: PKEEVTIKVHLIFADGKTQTAEFKGTFEEATAKAYAYADLLAKEHGEYTADLEDGGYTIYIKFAGKETPETPEE
As to B12, the dissociation constant Kd in test [1] was 17 nM; in test [2], 45 nM.

B13: pAM249 (Protein L B1 domain; N10H, N45H, N60Y) (designed binder)
chain: SEEEVTIKAHLIFANGSTQTAEFKGTFEKATSEAYAYADTLKKDHGEYTVDVADKGYTLYIKFAGKEKTPEE
With B13, the Kd was determined as 29 nM in test [1] and 79 nM in test [2].

B14: pAM235 (Protein L B1 domain; N10H, N45H, N60Q) (designed binder)
chain: SEEEVTIKAHLIFANGSTQTAEFKGTFEKATSEAYAYADTLKKDHGEYTVDVADKGYTLQIKFAGKEKTPEE
For the molecule B14, the results for the Kd in test [1] and in test [2] were 42 nM and 101 nM, respectively.

B15: pAM114 (wt B3 domain of Protein L) (protein)
chain: PKEEVTIKANLIYADGKTQTAEFKGTFEEATAEAYRYADLLAKENGKYTVDVADKGYTLNIKFAGKEKTPEE
On to B15, for which the Kd in test [1] amounted to 11 nM; in test [5] it was 45 nM; in test [6], 12 nM; in test [2], 46 nM.

B16: pAM125 (B3 domain of Protein L; pos 10 Q, pos 45 H, pos 60 N) (designed binder)
chain: PKEEVTIKAQLIYADGKTQTAEFKGTFEEATAEAYRYADLLAKEHGKYTVDVADKGYTLNIKFAGKEKTPEE
As for B16, the Kd in test [5] turned out to be 50 nM; in test [6], 15 nM.

B17: pAM131 (B3 domain of Protein L; pos 10 Q, pos 45 H, pos 60 Y) (designed binder)
chain: PKEEVTIKAQLIYADGKTQTAEFKGTFEEATAEAYRYADLLAKEHGKYTVDVADKGYTLYIKFAGKEKTPEE
Turning to B17, the results for the Kd in test [5] and in test [6] were 81 nM and 21 nM, respectively.

B18: pAM121 (B3 domain of Protein L; pos 10 N, pos 45 H, pos 60 Q) (designed binder)
chain: PKEEVTIKANLIYADGKTQTAEFKGTFEEATAEAYRYADLLAKEHGKYTVDVADKGYTLQIKFAGKEKTPEE
Turning to B18, the equilibrium dissociation constant (Kd) is 76 nM in test [5] and 22 nM in test [6].

B19: pAM136 (B3 domain of Protein L; pos 10 Y, pos 45 N, pos 60 Y) (designed binder)
chain: PKEEVTIKAYLIYADGKTQTAEFKGTFEEATAEAYRYADLLAKENGKYTVDVADKGYTLYIKFAGKEKTPEE
On to B19, for which the Kd in test [5] was determined as 77 nM; in test [6], 19 nM.

B20: pAM132 (B3 domain of Protein L; pos 10 Y, pos 45 N, pos 60 N) (designed binder)
chain: PKEEVTIKAYLIYADGKTQTAEFKGTFEEATAEAYRYADLLAKENGKYTVDVADKGYTLNIKFAGKEKTPEE
In the case of B20, the Kd in test [5] amounted to 50 nM; in test [6], 15 nM.

B21: pAM252 (Protein L B3 domain; N10H, N45H, N60Y) (designed binder)
chain: PKEEVTIKAHLIYADGKTQTAEFKGTFEEATAEAYRYADLLAKEHGKYTVDVADKGYTLYIKFAGKEKTPEE
On to B21, for which the Kd in test [1] was determined as 16 nM; in test [2], 69 nM.

B22: pAM122 (B3 domain of Protein L; pos 10 N, pos 45 H, pos 60 Y) (designed binder)
chain: PKEEVTIKANLIYADGKTQTAEFKGTFEEATAEAYRYADLLAKEHGKYTVDVADKGYTLYIKFAGKEKTPEE
B22: the Kd in test [5] was 89 nM; in test [6], 25 nM.

B23: pAM138 (B3 domain of Protein L; pos 10 Y, pos 45 A, pos 60 Y) (designed binder)
chain: PKEEVTIKAYLIYADGKTQTAEFKGTFEEATAEAYRYADLLAKEAGKYTVDVADKGYTLYIKFAGKEKTPEE
As for B23, the Kd in test [5] was determined as 73 nM; in test [6], 18 nM.

B24: pAM251 (Protein L B2 domain; N10H, N45H, N60Y) (designed binder)
chain: PKEEVTIKAHLIYADGKTQTAEFKGTFEEAAAEAYRYADALKKDHGEYTVDVADKGYTLYIKFAGKEKTPEE
Turning to B24, the figures for the Kd in test [1] and in test [2] were 20 nM and 55 nM, respectively.

B25: pAM238 (Protein L B3 domain; N10H, N45H, N60Q) (designed binder)
chain: PKEEVTIKAHLIYADGKTQTAEFKGTFEEATAEAYRYADLLAKEHGKYTVDVADKGYTLQIKFAGKEKTPEE
In the case of B25, the Kd in test [1] stood at 25 nM; in test [2], 82 nM.

B26: pAM140 (B3 domain of Protein L; pos 10 Y, pos 45 H, pos 60 Y) (designed binder)
chain: PKEEVTIKAYLIYADGKTQTAEFKGTFEEATAEAYRYADLLAKEHGKYTVDVADKGYTLYIKFAGKEKTPEE
Consider B26, for which the Kd in test [5] is 96 nM; in test [6], 27 nM.

B27: pAM139 (B3 domain of Protein L; pos 10 Y, pos 45 H, pos 60 Q) (designed binder)
chain: PKEEVTIKAYLIYADGKTQTAEFKGTFEEATAEAYRYADLLAKEHGKYTVDVADKGYTLQIKFAGKEKTPEE
As for B27, the Kd in test [5] amounted to 71 nM; in test [6] it was 22 nM.

B28: pAM237 (Protein L B2 domain; N10H, N45H, N60Q) (designed binder)
chain: PKEEVTIKAHLIYADGKTQTAEFKGTFEEAAAEAYRYADALKKDHGEYTVDVADKGYTLQIKFAGKEKTPEE
As for B28, the Kd was 27 nM in test [1] and 72 nM in test [2].

B29: pAM240 (Protein L B5b domain; H, H, Q at positions 10, 45, 60) (designed binder)
chain: KEQVTIKEHIYFEDGTVQTATFKGTFAEATAEAYRYADLLSKEHGKYTADLEDGGYTIQIRFAGKEEPEE
Regarding B29, the Kd is 15 nM in test [1] and 79 nM in test [2].

B30: pAM254 (Protein L B5b domain; H, H, Y at positions 10, 45, 60) (designed binder)
chain: KEQVTIKEHIYFEDGTVQTATFKGTFAEATAEAYRYADLLSKEHGKYTADLEDGGYTIYIRFAGKEEPEE
In the case of B30, the values for the Kd in test [1] and in test [2] were 7 nM and 41 nM, respectively.

B31: pAM253 (Protein L B4 domain; N10H, N45H, N60Y) (designed binder)
chain: PKEEVTIKAHLIYADGKTQTAEFKGTFAEATAEAYRYADLLAKEHGKYTADLEDGGYTIYIRFAGKKVDEKPEE
Regarding B31, the dissociation constant (Kd) in test [1] was 14 nM; in test [2] it was 54 nM.

B32: pAM239 (Protein L B4 domain; N10H, N45H, N60Q) (designed binder)
chain: PKEEVTIKAHLIYADGKTQTAEFKGTFAEATAEAYRYADLLAKEHGKYTADLEDGGYTIQIRFAGKKVDEKPEE
With B32, the values for the dissociation constant Kd in test [1] and in test [2] were 17 nM and 60 nM, respectively.

B33: pAM241 (Protein L C1 domain; H, H, Q at positions 10, 45, 60) (designed binder)
chain: PEEEVTIKAHLIFADGSTQNAEFKGTFAKAVSDAYAYADALKKDHGEYTVDVADKGLTLQIKFAGKKEKPEE
B33: the figures for the Kd in test [1] and in test [2] were 87 nM and 187 nM, respectively.

B34: pAM255 (Protein L C1 domain; H, H, Y at positions 10, 45, 60) (designed binder)
chain: PEEEVTIKAHLIFADGSTQNAEFKGTFAKAVSDAYAYADALKKDHGEYTVDVADKGLTLYIKFAGKKEKPEE
For the molecule B34, the equilibrium dissociation constant (Kd) in test [1] was found to be 146 nM; in test [2] it was 324 nM.

What is called Kd is the constant that tells how readily two partners part at equilibrium. Low readings indicate higher affinity, high ones lower affinity.
